Measurements: article PMC12277127

Experiments:
Conditions in all cases: protein: recombinant; tags: none left (N-terminal His removed by TEV); chain copies: 3; single strand
SPRTN core (E112Q) [1] = molecular target: T1, SPRTN core (E112Q) (human, UniProt Q9H040 26-240, E112Q); test: ITC; no ubiquitin; N=0.36 ± 0.05; ITC: 50 mM HEPES pH 7.4, 50 mM NaCl, 0.5 mM TCEP-HCl, 25 °C, one-site model
T1 sequence: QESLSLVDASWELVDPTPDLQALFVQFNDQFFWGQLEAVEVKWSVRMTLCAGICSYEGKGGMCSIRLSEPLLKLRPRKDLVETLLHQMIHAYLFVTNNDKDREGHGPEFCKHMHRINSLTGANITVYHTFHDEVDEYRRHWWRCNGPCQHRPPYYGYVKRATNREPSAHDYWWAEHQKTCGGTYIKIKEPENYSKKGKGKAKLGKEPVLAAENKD

SPRTN core (E112Q) [2] = molecular target: T1, SPRTN core (E112Q); test: ITC; with equimolar monoUb; N=0.36 ± 0.02; ITC: 50 mM HEPES pH 7.4, 50 mM NaCl, 0.5 mM TCEP-HCl, 25 °C, one-site model
SPRTN core (E112Q) [3] = molecular target: T1, SPRTN core (E112Q); test: ITC; with equimolar M1-Ub4 (linear tetra-ubiquitin; ternary complex); N=0.29 ± 0.01; ITC: 50 mM HEPES pH 7.4, 50 mM NaCl, 0.5 mM TCEP-HCl, 25 °C, one-site model

Q: Which Kd (SPRTN core (E112Q) [1]) does the source give for ACGCCTGAAGAGTCTGGTGA (ssDNA) [ssDNA (20 nt), Turner-20bp-F] here?
A: Its Kd is 4.33 ± 0.98 µM.

Q: What about the Kd (SPRTN core (E112Q) [2]) of the same binder?
A: Its Kd is 5.15 ± 1.36 µM.

Q: What about the Kd (SPRTN core (E112Q) [3]) of the same binder?
A: Its Kd is 0.44 ± 0.03 µM.
